Data: publication PMC3787391

Molecular target: ligated complex of zebrafish PlexinC1_(cyto) and human Rap1B with the 24-residue linker and the LPETGG sortase recognition motif (human | zebrafish) (UniProt P61224)
Assay: AUC; sedimentation velocity, with 2 mM AlFx; 0.5, 4, 8 and 20 μM; 10 mM Tris pH 8, 50 mM NaCl, 2 mM TCEP, 2 mM MgCl2; 20°C, 42,000 rpm; c(s) analysis; monomer to dimer

stoichiometry N: 2
Substance: ligated complex of zebrafish PlexinC1_(cyto) and human Rap1B with the 24-residue linker and the LPETGG sortase recognition motif (from UniProt P61224 2-166; A0A8M3ARP5 552-1147)
